Test [1] addresses T1, EGFR on HEK293 cells (human, UniProt P00533 25-1210).
T1 construct: whole, on cells; also called hEGFR
The test can be described thus: cell microarray confirmation screen, negative control vector; cells of LV40 under EGFR are blank.
Description: (§1) Vectors encoding all interactions identified in the library screen, plus control vectors encoding CD20 (positive control) and EGFR (transfection and negative control), were arrayed and expressed in HEK293 cells on new slides. Confirmation screen slides and analyses were carried out as for the library screen either after cell fixation (n=2) or in the absence of fixation (n=1). […] Binding to target-expressing cells and non-transfected cells was again assessed by fluorescence imaging.

Test [2] deals with T2, human FcRn / FCGRT&B2M (human, UniProt P55899 24-297; P61769 21-119).
T2 construct: Bought protein, reversibly immobilised for SPR at pH 6.0; also called neonatal receptor
The test can be described thus: SPR; KD of LV40 over KD of Rituximab (control). On the technique in general: In SPR one partner is held on a chip, and binding of the other changes the refractive index at the surface.
Description: (§2) Effect on interaction with Fc receptor was analyzed by SPR [Instrument: Biacore T200 (C1q and FcRn) and 8K+ for (FcγR)]. Analysis temperature: 25° C., sample compartment: 12° C., Sensor chips: CM3 (C1q) and C1 (FcγR and FcRn).
(§3) Concentration range was adjusted to optimal window depending on results of qualitative analysis. The study was conducted by Biaffin GmbH & Co KG (Bielefeld, Germany).

Test [3] concerns the target T3, human FcyRI/CD64 (human, UniProt P12314 16-288, limits assumed).
T3 construct: Bought protein, reversibly immobilised for SPR; also called human CD64
The test can be described thus: SPR; KD of LV40 over KD of Rituximab (control).
Description: as §2, §3

The target of test [4] is T2, human FcRn / FCGRT&B2M. The test can be described thus: SPR (Biacore T200), pH 6.0, FcRn reversibly immobilised, antibody as analyte.
Description: as §2, §3
In test [5] the target is human C1q purified protein (human, UniProt P02745 23-245; P02746 28-253; P02747 29-245). The test can be described thus: SPR (Biacore T200), C1q reversibly immobilised, antibody as analyte; table token '-' at the 120th table, row 16, column 3.
Description: as §2
For test [6], the target named is T4, L1-CAM recombinant protein (His Tag), human (human, UniProt P32004 20-1120).
T4 construct: Bought protein; also called CD171; human L1-CAM; not shown: His tag
The test can be described thus: SPR (Biacore 8K) as in Example 6, new batch of L1-CAM on the chip.

In test [7] the target is T5, human FcyRIIA/CD32a (H167) (human, UniProt P12318 36-218).
T5 construct: Bought protein, reversibly immobilised for SPR; also called human CD32a (H167)
T5 sequence (looked up): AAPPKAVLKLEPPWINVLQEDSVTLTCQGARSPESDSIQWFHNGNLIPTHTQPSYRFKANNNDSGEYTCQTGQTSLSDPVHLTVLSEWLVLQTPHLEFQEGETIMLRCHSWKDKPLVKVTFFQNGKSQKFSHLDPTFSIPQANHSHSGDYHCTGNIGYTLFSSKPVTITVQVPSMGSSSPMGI
The test can be described thus: SPR (Biacore 8K+), receptor reversibly immobilised, antibody as analyte; table token '-' at the 120th table, row 10, column 3.
Description: as §2

Test [8] has as its target T6, human FcyRIIIA/CD16a (V176) (human, UniProt P08637 17-208).
T6 construct: Bought protein, reversibly immobilised for SPR; also called human CD16a (V176)
The test can be described thus: SPR (Biacore 8K+), receptor reversibly immobilised, antibody as analyte; table token '-' at the 120th table, row 12, column 3.
Description: as §2

The target of test [9] is T3, human FcyRI/CD64. The test can be described thus: SPR (Biacore 8K+), receptor reversibly immobilised, antibody as analyte.
Description: as §2, §3
The target in test [10] is T7, CD20 on HEK293 cells (human, UniProt P11836 1-297).
T7 construct: whole, on cells; Positive control target for the Rituximab biosimilar; also called clone 0038
T7 sequence (looked up): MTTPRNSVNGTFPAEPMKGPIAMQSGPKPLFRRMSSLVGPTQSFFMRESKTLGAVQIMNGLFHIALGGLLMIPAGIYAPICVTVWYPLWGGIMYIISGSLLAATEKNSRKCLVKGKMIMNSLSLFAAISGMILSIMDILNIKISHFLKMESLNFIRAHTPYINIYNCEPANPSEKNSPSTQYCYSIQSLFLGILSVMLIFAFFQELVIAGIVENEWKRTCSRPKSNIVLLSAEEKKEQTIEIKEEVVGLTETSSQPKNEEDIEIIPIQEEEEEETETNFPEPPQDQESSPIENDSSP
The test can be described thus: cell microarray confirmation screen, control vector; cells of LV40 under CD20 are blank.
Description: as §1

Consider one molecule from patent US20260055182A1 (CIS BIOPHARMA, published 2026).

T4 sequence (P32004 20-1120 limits assumed): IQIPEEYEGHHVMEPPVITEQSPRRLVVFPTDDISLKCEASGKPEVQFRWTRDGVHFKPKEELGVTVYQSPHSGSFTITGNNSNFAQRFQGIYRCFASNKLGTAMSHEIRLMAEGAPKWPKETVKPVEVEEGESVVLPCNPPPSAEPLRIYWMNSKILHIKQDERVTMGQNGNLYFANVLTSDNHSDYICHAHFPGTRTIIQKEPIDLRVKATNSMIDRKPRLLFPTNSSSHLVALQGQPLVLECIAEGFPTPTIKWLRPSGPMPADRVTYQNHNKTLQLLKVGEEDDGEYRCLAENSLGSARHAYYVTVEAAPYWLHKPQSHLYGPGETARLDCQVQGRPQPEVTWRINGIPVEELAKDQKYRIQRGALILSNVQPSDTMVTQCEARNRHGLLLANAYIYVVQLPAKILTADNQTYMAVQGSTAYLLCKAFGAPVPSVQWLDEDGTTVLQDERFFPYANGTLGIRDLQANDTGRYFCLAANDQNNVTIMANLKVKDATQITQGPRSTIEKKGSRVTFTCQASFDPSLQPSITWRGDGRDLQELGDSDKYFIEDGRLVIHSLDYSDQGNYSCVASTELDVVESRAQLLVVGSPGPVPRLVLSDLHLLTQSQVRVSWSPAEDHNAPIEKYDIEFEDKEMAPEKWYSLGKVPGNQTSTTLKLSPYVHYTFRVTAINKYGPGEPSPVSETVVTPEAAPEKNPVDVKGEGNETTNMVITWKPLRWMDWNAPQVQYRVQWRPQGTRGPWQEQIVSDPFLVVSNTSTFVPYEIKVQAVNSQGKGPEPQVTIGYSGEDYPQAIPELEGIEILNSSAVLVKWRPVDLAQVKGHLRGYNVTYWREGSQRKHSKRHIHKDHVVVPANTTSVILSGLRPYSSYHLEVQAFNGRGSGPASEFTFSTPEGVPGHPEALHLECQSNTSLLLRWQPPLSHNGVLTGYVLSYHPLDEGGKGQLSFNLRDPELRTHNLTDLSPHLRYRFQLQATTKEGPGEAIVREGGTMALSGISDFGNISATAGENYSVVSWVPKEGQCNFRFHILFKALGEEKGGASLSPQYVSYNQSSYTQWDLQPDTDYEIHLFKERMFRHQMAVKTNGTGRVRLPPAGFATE
T2 sequence (P55899 24-297 limits assumed, chain 1 of 2): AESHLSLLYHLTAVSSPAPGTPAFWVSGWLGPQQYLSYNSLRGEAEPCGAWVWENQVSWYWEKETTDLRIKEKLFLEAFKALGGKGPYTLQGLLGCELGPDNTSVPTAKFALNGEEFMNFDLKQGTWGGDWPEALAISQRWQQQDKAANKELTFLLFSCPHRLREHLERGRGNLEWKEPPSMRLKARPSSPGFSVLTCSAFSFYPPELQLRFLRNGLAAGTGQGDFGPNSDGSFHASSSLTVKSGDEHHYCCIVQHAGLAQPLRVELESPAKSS
T2 sequence (P61769 21-119 limits assumed, chain 2 of 2): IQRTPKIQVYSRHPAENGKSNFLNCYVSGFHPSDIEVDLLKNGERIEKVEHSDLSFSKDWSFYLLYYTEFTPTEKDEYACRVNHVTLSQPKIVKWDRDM
T3 sequence (P12314 16-288 limits assumed): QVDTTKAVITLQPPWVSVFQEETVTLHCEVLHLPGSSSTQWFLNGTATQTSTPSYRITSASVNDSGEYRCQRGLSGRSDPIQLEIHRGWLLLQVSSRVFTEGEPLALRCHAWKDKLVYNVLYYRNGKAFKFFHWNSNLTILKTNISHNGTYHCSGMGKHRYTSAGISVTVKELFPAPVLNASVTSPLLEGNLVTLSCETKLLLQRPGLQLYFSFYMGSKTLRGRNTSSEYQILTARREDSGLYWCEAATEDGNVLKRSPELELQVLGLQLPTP
T6 sequence (P08637 17-208 F176V limits assumed): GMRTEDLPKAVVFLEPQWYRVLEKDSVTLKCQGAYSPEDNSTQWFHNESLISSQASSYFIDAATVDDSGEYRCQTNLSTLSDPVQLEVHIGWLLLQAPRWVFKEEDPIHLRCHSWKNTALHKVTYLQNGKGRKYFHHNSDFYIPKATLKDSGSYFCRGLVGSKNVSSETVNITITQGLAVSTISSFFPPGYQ
Sequence of human C1q purified protein (P02745 23-245, chain 1 of 3): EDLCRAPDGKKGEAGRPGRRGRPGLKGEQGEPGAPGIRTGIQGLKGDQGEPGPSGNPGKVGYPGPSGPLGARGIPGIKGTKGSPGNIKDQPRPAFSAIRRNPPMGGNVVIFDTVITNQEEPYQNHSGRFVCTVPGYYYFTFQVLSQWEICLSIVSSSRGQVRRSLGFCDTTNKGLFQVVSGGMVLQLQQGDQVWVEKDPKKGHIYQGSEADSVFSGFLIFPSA
Sequence of human C1q purified protein (P02746 28-253, chain 2 of 3): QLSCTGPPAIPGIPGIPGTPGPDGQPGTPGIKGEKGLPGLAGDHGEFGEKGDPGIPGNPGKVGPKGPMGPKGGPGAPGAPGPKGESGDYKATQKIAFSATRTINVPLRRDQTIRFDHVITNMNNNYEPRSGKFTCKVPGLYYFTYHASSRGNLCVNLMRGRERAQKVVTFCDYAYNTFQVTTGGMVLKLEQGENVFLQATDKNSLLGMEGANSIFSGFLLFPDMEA
Sequence of human C1q purified protein (P02747 29-245, chain 3 of 3): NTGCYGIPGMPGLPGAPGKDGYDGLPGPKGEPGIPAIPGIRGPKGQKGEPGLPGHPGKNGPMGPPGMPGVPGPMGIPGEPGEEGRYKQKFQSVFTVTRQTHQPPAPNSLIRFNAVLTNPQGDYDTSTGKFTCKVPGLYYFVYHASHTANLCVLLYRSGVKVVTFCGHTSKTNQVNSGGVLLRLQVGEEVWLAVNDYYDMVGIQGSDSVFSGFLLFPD

B1: huCE7 LV40 (antibody, human IgG1, kappa, L234A L235A, N297A)
heavy: QVQLVQSGAEVKKPGASVKVSCKASGYTFTGYFMHWVRQAPGQGLEWIGEINPSNARTNYNERFQGRVTLTVDKSISTAYMELSRLRSDDTAVYYCARDYYGTSYNFDYWGQGTLVTVSSASTKGPSVFPLAPSSKSTSGGTAALGCLVKDYFPEPVTVSWNSGALTSGVHTFPAVLQSSGLYSLSSVVTVPSSSLGTQTYICNVNHKPSNTKVDKKVEPKSCDKTHTCPPCPAPEAAGGPSVFLFPPKPKDTLMISRTPEVTCVVVDVSHEDPEVKFNWYVDGVEVHNAKTKPREEQYASTYRVVSVLPVLHQDWLNGKEYKCKVSNKALPASIEKTISKAKGQPREPQVYTLPPSREEMTKNQVSLTCLVKGFYPSDIAVEWESNGQPENNYKTTPPVLDSDGSFFLYSKLTVDKSRWQQGNVFSCSVMHEALHNHYTQKSLSLSPGK
light: DIQMTQSPSSLSASVGDRVTITCKANEDINARLAWYQQKPGKAPKLLISGATNLVTGVPSRFSGSGSGKDYTLTISSLQPEDFATYYCQQYYSTPFTFGQGTKLEIKRTVAAPSVFIFPPSDEQLKSGTASVVCLLNNFYPREAKVQWKVDNALQSGNSQESVTEQDSKDSTYSLSSTLTLSKADYEKHKVYACEVTHQGLSSPVTKSFNRGEC
notes: Variant 7AG (IgG1, N297A L234A L235A P331S) with HC WH33F, GH55A, TH307P and LC NL31A, WL92Y; also called huCE7 variant LV40; huCE7-variant40
B1: the binding result was “no binding (tested: 20 µg/mL)” in test [1]; “no binding” in [5]; “no binding” in test [7]; “no binding” in [8]; “no binding (tested: 20 µg/mL)” in test [10]. For the same molecule, the “ratio KD (KD sample / KD control)” value in [2] is 1.2; in test [3], 389. Moreover, the Kd (as a rule, a measure of binding affinity in units of concentration) in [4] is 459 nM; in test [6], 0.0644 nM; in [9], 15.8 nM. Besides, in test [6], the koff (as a rule, the rate constant with which the complex falls apart) was 0.000472 s⁻¹. Also, in test [6], the on-rate constant (kon) – broadly, the second-order rate constant of association – came to 7.32e+06 M⁻¹ s⁻¹.
